From patent US20250011468A1

Target: human plasma-derived FIXa (Haematologic Technologies Inc) (human) (UniProt P00740)
Assay: cell-based or functional assay

human plasma-derived FIXa (Haematologic Technologies Inc) (human), sequence (P00740 47-191, chain 1 of 2): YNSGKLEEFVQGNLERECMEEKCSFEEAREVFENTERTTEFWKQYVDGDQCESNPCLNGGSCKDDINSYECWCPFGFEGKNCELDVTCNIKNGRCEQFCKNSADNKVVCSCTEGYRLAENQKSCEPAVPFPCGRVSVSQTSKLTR
human plasma-derived FIXa (Haematologic Technologies Inc) (human), sequence (P00740 227-461, chain 2 of 2): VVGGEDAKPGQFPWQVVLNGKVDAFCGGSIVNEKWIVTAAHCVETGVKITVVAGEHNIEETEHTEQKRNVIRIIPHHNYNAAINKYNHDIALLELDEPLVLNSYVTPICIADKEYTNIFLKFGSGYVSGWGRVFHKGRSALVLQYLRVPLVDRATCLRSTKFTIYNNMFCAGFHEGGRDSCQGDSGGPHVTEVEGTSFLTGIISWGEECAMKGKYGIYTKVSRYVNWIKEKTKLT

Maximum stimulation (fold), at 15300 nM BiAb: 808 fold
Substance: ACE910 (bispecific antibody)
